Measured values published in patent publication US20120219562A1 (AbbVie / Abbott, published 2012).
Numbering of substitutions follows the chain as printed.

T1: human interleukin 12 (human, UniProt P29459 23-219; P29460 23-328)
T1 construct: heterodimer of p35 and p40 linked by a disulfide bridge; also called hIL-12; IL-12
T1 sequence (looked up) 1: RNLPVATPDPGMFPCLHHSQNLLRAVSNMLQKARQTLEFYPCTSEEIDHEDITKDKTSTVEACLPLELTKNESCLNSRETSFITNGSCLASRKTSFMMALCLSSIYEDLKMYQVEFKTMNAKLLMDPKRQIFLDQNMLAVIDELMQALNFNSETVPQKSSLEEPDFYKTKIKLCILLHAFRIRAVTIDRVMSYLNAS
T1 sequence (looked up) 2: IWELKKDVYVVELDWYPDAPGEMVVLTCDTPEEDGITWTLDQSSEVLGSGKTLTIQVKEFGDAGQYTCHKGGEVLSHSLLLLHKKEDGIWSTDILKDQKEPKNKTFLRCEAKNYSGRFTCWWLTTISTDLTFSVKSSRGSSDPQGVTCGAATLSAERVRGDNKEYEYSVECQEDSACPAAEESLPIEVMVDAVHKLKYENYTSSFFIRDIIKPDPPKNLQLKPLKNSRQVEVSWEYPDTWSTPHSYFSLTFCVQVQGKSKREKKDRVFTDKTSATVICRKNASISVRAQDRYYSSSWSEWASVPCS

B1: 170-21 (antibody, V domains shown)
VH: QVQLVQSGGGVVQPGRSLRLSCAASGFTFSSYGMHWVRQAPGKGLEWVAFIRYDGSNKYYADSVKGRFTISRDNSKNTLYLQMKSLRAEDTAVYYCTTHGSQDNWGQGTMVTVSS
VL: SYVLTQPPSVSGTPGQRVTISCSGGRSNIGSNTVKWYQQLPGTAPKLLIYGNDQRPSGVPDRFSGSKSGTSASLAITGVQAEDEADYYCQSYDRGFTGPRLFGTGTKVTVL
B2: 73-F6 (antibody, V domains shown)
VH: B1 VH with H99S, Q102Y, N104Y
VL: SYVLTQPPSVSGTPGQRVTISCSGGRSNIGSNTVKWYQQLPGTAPKLLIYGNDQRPSGVPDRFSGSKSGTSASLAITGVQAEDEADYYCHSYDMGFTGSRVFGTGTKVTVLG
B3: M2 D4 (antibody, V domains shown)
VH: B1 VH with T97K, Q102H
VL: B2 VL with H90Q, D93E, M94T, G95S
B4: M2 B1 (antibody, V domains shown)
VH: B1 VH with T97K, Q102H
VL: B2 VL with H90Q, M94S, F96L
B5: 73-G6 (antibody, V domains shown)
VH: B1 VH with H99S, Q102Y, N104Y
VL: B2 VL with H90Q, D93N, M94T, G95D
B6: M2 E1 (antibody, V domains shown)
VH: B1 VH with T97K, Q102H
VL: B2 VL with H90Q, S91T, M94K, R100S
B7: 73-H3 (antibody, V domains shown)
VH: B1 VH with H99S, Q102Y, N104Y
VL: B2 VL with M94N
B8: M2 D6 (antibody, V domains shown)
VH: B1 VH with T97K, Q102H
VL: B2 VL with H90Q, M94S, G98A
B9: M2 A2 (antibody, V domains shown)
VH: B1 VH with T97K, Q102H
VL: B2 VL with H90Q, M94R, F96I, T97H
B10: 73-D5 (antibody, V domains shown)
VH: B1 VH with H99S, Q102Y, N104Y
VL: B2 VL with Y92S, M94S
B11: 73-F3 (antibody, V domains shown)
VH: B1 VH with H99S, Q102Y, N104Y
VL: B2 VL with H90Q, M94A, G95P, F96W, T97S
B12: M2 B5 (antibody, V domains shown)
VH: B1 VH with T97K, Q102H
VL: B2 VL with H90Q, M94S, F96V
B13: 73-G5 (antibody, V domains shown)
VH: B1 VH with H99S, Q102Y, N104Y
VL: B2 VL with Y92S, M94S, G95D, F96S
B14: 73-G2 (antibody, V domains shown)
VH: B1 VH with H99S, Q102Y, N104Y
VL: B2 VL with S91T, Y92N, M94S
B15: A8 (antibody, V domains shown)
VH: B1 VH with T97K, Q102H
VL: B1 VL with F96K, T97S, G98N, P99K, R100M
B16: M2 B3 (antibody, V domains shown)
VH: B1 VH with T97K, Q102H
VL: B2 VL with H90Q, M94I, F96M
B17: 73-D4 (antibody, V domains shown)
VH: B1 VH with H99S, Q102Y, N104Y
VL: B2 VL with M94T, G95K
B18: 73-H2 (antibody, V domains shown)
VH: B1 VH with H99S, Q102Y, N104Y
VL: B2 VL with H90Q, M94S
B19: M2 A5 (antibody, V domains shown)
VH: B1 VH with T97K, Q102H
VL: B2 VL with H90Q, M94I, F96S
B20: 73-C5 (antibody, V domains shown)
VH: B1 VH with H99S, Q102Y, N104Y
VL: B2 VL with Y92H, M94R, G95D
B21: 73-C6 (antibody, V domains shown)
VH: B1 VH with H99S, Q102Y, N104Y
VL: B2 VL with H90Q, M94T
B22: 73-D1 (antibody, V domains shown)
VH: B1 VH with H99S, Q102Y, N104Y
VL: B2 VL with M94S
B23: M2 D2 (antibody, V domains shown)
VH: B1 VH with T97K, Q102H
VL: B2 VL with H90Q, M94I, G95R, F96S
B24: M2 F1 (antibody, V domains shown)
VH: B1 VH with T97K, Q102H
VL: B2 VL with H90Q, M94S, G95D, F96V
B25: M2 D3 (antibody, V domains shown)
VH: B1 VH with T97K, Q102H
VL: B2 VL with H90Q, M94N, G95R, F96L
B26: M2 B6 (antibody, V domains shown)
VH: B1 VH with T97K, Q102H
VL: B1 VL with F96L, G98A, P99S, L101V
B27: M2 H5 (antibody, V domains shown)
VH: B1 VH with T97K, Q102H
VL: B2 VL with H90Q, M94A
B28: M2 D1 (antibody, V domains shown)
VH: B1 VH with T97K, Q102H
VL: B2 VL with H90Q, M94I, G95R
B29: 73-G4 (antibody, V domains shown)
VH: B1 VH with H99S, Q102Y, N104Y
VL: B2 VL with H90Q, G95R
B30: 73-B2 (antibody, V domains shown)
VH: B1 VH with H99S, Q102Y, N104Y
VL: B2 VL with Y92S, D93E, M94S
B31: M2 C5 (antibody, V domains shown)
VH: B1 VH with T97K, Q102H
VL: B2 VL with H90Q, M94T, G95A, F96L
B32: 73-G3 (antibody, V domains shown)
VH: B1 VH with H99S, Q102Y, N104Y
VL: B2 VL with M94T, G95R
B33: M2 E2 (antibody, V domains shown)
VH: B1 VH with T97K, Q102H
VL: B1 VL with R94N, P99S, L101V
B34: M2 D5 (antibody, V domains shown)
VH: B1 VH with T97K, Q102H
VL: B2 VL with H90Q, M94S, G95S, F96S
B35: 73-E6 (antibody, V domains shown)
VH: B1 VH with H99S, Q102Y, N104Y
VL: B2 VL with D93E, M94S
B36: M2 E6 (antibody, V domains shown)
VH: B1 VH with T97K, Q102H
VL: B2 VL with H90Q, M94T, G98K
B37: 73-F5 (antibody, V domains shown)
VH: B1 VH with H99S, Q102Y, N104Y
VL: B2 VL with H90Q, M94S, G95D, R100K
B38: 73-C2 (antibody, V domains shown)
VH: B1 VH with H99S, Q102Y, N104Y
VL: B2 VL with H90Q, M94S, G95E
B39: C2 (antibody, V domains shown)
VH: B1 VH with T97K, Q102H
VL: B1 VL with F96L, T97N, G98P, P99S, R100A, L101T
B40: 73-E3 (antibody, V domains shown)
VH: B1 VH with H99S, Q102Y, N104Y
VL: B2 VL with H90Q, M94S, G95D

target: T1, human interleukin 12; assay: SPR (BIAcore)

koff [s⁻¹]	Binder
0.00389	B1
0.00587	B2
0.0581	B3
0.00797	B4
0.0063	B5
0.0532	B6
0.00685	B7
0.0501	B8
0.04	B9
0.00357	B10
0.00708	B11
0.00838	B12
0.00601	B13
0.00398	B14
0.00237	B15
0.046	B16
0.00536	B17
0.00593	B18
0.0401	B19
0.00484	B20

koff [s⁻¹]	Binder
0.00396	B21
0.00399	B22
0.0385	B23
0.0616	B24
0.0333	B25
0.0281	B26
0.0099	B27
0.0371	B28
0.00658	B29
0.00207	B30
0.0471	B31
0.0035	B32
0.0477	B33
0.0518	B34
0.00417	B35
0.00977	B36
0.00374	B37
0.00379	B38
0.00223	B39
0.00498	B40
